# B1: 22 kDa (196 amino acids) OSM (natural protein, human, UniProt P13725 26-221, looked up)
# chain: AAIGSCSKEYRVLLGQLQKQTDLMQDTSRLLDPYIRIQGLDVPKLREHCRERPGAFPSEETLRGLGRRGFLQTLNATLGCVLHRLADLEQRLPKAQDLERSGLNIEDLEKLQMARPNILGLRNNIYCMAQLLDNSDTAEPTKAGRGASQPPTPTPASDAFQRKLEGCRFLHGYHRFMHSVGRVFSKWGESPNRSRR
# Biological target: fibronectin (UniProt P02751 32-2477)
# Experiment: SPR
binder,measurement,value
B1,Kd,2600 nM

# Source: publication PMC4328881 (Cytokine, 2015)
